Measured values taken from paper doi:10.1101/2022.03.25.485794 (bioRxiv, 2022).
Positions count from the first letter of the chain named. Numbers in names are those of the source. Like-named read-outs stand apart in the source and are kept apart here.

Key:
Assay in all cases: cryo-EM structure
[1] = molecular target: T1, E. coli [Cys541;Pro607]-σ^70 (E. coli, UniProt P00579 1-613, R541C | L607P)
E. coli NusA = E. coli NusA (E. coli, UniProt P0AFF6 1-495)
[2] = molecular target: T1, E. coli [Cys541;Pro607]-σ^70; remark: listed apart in the source

B1: wild-type Qλ (Q protein of bacteriophage λ) (natural protein, UniProt P03047 1-207, looked up)
chain: MRLESVAKFHSPKSPMMSDSPRATASDSLSGTDVMAAMGMAQSQAGFGMAAFCGKHELSQNDKQKAINYLMQFAHKVSGKYRGVAKLEGNTKAKVLQVLATFAYADYCRSAATPGARCRDCHGTGRAVDIAKTELWGRVVEKECGRCKGVGYSRMPASAAYRAVTMLIPNLTQPTWSRTVKPLYDALVVQCHKEESIADNILNAVTR
B1: binds [1]; binds (E. coli NusA).

B2: Qλ^M1S (Q protein of bacteriophage λ, M1S derivative) (natural protein, UniProt P03047 1-207, looked up)
chain: B1 chain with M1S
B2: binds [2].
